Reference: the supplement of paper PMC9112550, “Optimization of the antimicrobial peptide Bac7 by deep mutational scanning” (BMC Biology, 2022)

The sequences below were run on Escherichia coli TOP10 (assay: shrunken log2 fold change of peptide-encoding DNA abundance (4.5 h post-induction vs induction); higher = less antimicrobial activity (less host growth inhibition)). Conditions: time post-induction: 4.5 h; library: site-saturation at positions 5, 18, 19, 20.
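Note: peptides expressed intracellularly from a pBAD plasmid library in pooled LB shake-flask culture, induced with 0.3% L-arabinose, DNA abundance read by NGS, three biological replicates, DESeq2 with apeglm shrinkage.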

In order of rising “shrunken log2 fold change” value:
1. RRIRIRPPRLPRPRPRPWFLPRP  -0.802
2. RRIRDRPPRLPRPRPRPNSSPRP  -0.675
3. RRIRDRPPRLPRPRPRPHIQPRP  -0.53
4. RRIRHRPPRLPRPRPRPKNIPRP  -0.477
5. RRIRGRPPRLPRPRPRPYKHPRP  -0.463
6. RRIRGRPPRLPRPRPRPYMAPRP  -0.388
7. RRIRWRPPRLPRPRPRPMYNPRP  -0.387
8. RRIRPRPPRLPRPRPRPLNHPRP  -0.363
9. RRIRTRPPRLPRPRPRPKNYPRP  -0.346
10. RRIRCRPPRLPRPRPRPDIQPRP  -0.268
11. RRIRPRPPRLPRPRPRPIMPPRP  -0.257
12. RRIRHRPPRLPRPRPRPRSNPRP  -0.253
13. RRIRTRPPRLPRPRPRPVYAPRP  -0.249
14. RRIRNRPPRLPRPRPRPDHNPRP  -0.245
15. RRIRIRPPRLPRPRPRPCVYPRP  -0.227
16. RRIRFRPPRLPRPRPRPSHIPRP  -0.216
17. RRIRERPPRLPRPRPRPQKSPRP  -0.202
18. RRIRCRPPRLPRPRPRPNGWPRP  -0.183
19. RRIRCRPPRLPRPRPRPHKWPRP  -0.174
20. RRIRYRPPRLPRPRPRPLPYPRP  -0.156
21. RRIRGRPPRLPRPRPRPYNDPRP  -0.155
22. RRIRWRPPRLPRPRPRPSTWPRP  -0.148
23. RRIRCRPPRLPRPRPRPYENPRP  -0.145
24. RRIRIRPPRLPRPRPRPQTCPRP  -0.141
25. RRIRIRPPRLPRPRPRPAGTPRP  -0.108
26. RRIRVRPPRLPRPRPRPYPPPRP  -0.103
27. RRIRNRPPRLPRPRPRPMQSPRP  -0.0939
28. RRIRPRPPRLPRPRPRPECIPRP  -0.0733
29. RRIRYRPPRLPRPRPRPDLLPRP  -0.0601
30. RRIRSRPPRLPRPRPRPWSLPRP  -0.0411
31. RRIRCRPPRLPRPRPRPEEQPRP  -0.0372
32. RRIRTRPPRLPRPRPRPIREPRP  -0.0125
33. RRIRDRPPRLPRPRPRPYSRPRP  -0.00164
34. RRIRFRPPRLPRPRPRPQDCPRP  0.00177
35. RRIRHRPPRLPRPRPRPCELPRP  0.00567
36. RRIRARPPRLPRPRPRPFLHPRP  0.0154
37. RRIRVRPPRLPRPRPRPGMVPRP  0.0182
38. RRIRIRPPRLPRPRPRPIMSPRP  0.0262
39. RRIRGRPPRLPRPRPRPDDIPRP  0.027
40. RRIRKRPPRLPRPRPRPELSPRP  0.0277
41. RRIRQRPPRLPRPRPRPIWEPRP  0.0296
42. RRIRDRPPRLPRPRPRPDHTPRP  0.0303
43. RRIRFRPPRLPRPRPRPTLSPRP  0.0323
44. RRIRSRPPRLPRPRPRPWAPPRP  0.0324
45. RRIRQRPPRLPRPRPRPYDQPRP  0.0352
46. RRIRTRPPRLPRPRPRPEWSPRP  0.0383
47. RRIRKRPPRLPRPRPRPRIMPRP  0.0472
48. RRIRRRPPRLPRPRPRPYTYPRP  0.0668
49. RRIRIRPPRLPRPRPRPDMEPRP  0.0763
50. RRIRWRPPRLPRPRPRPDHDPRP  0.0812
51. RRIRNRPPRLPRPRPRPRSAPRP  0.0888
52. RRIRHRPPRLPRPRPRPAMSPRP  0.0912
53. RRIRSRPPRLPRPRPRPDCPPRP  0.0922
54. RRIRARPPRLPRPRPRPNTRPRP  0.12
55. RRIRQRPPRLPRPRPRPNMRPRP  0.121
56. RRIRTRPPRLPRPRPRPLAQPRP  0.143
57. RRIRWRPPRLPRPRPRPPQTPRP  0.169
58. RRIRVRPPRLPRPRPRPLAPPRP  0.169
59. RRIRDRPPRLPRPRPRPVFEPRP  0.187
60. RRIRTRPPRLPRPRPRPQPQPRP  0.222
61. RRIRARPPRLPRPRPRPWDVPRP  0.246
62. RRIRPRPPRLPRPRPRPIMWPRP  0.253
63. RRIRPRPPRLPRPRPRPPSFPRP  0.262
64. RRIRGRPPRLPRPRPRPQARPRP  0.3
65. RRIRRRPPRLPRPRPRPSRHPRP  0.319
66. RRIRPRPPRLPRPRPRPDPMPRP  0.4
67. RRIRWRPPRLPRPRPRPRLMPRP  0.44
68. RRIRGRPPRLPRPRPRPVCSPRP  0.613
69. RRIRLRPPRLPRPRPRPEGEPRP  0.624
70. RRIRMRPPRLPRPRPRPPVEPRP  0.664
71. RRIRWRPPRLPRPRPRPRPKPRP  0.697
72. RRIRQRPPRLPRPRPRPAPTPRP  0.709
73. RRIRRRPPRLPRPRPRPRPHPRP  1.6
74. RRIRGRPPRLPRPRPRPMCEPRP  2.46
75. RRIRARPPRLPRPRPRPVKWPRP  3.06
